Ends that are not written are not given here.
T1: human VEGFR3-Fc fusion protein (human, UniProt P35916 25-329, limits assumed)
T1 construct: domain: first three Ig homology domain of the extracellular portion; Coated on microtiter wells at 1 ug/ml; not shown: Fc tail of human IgG1, cloned in frame after the VEGFR3 Ig homology domains
T1 sequence (looked up): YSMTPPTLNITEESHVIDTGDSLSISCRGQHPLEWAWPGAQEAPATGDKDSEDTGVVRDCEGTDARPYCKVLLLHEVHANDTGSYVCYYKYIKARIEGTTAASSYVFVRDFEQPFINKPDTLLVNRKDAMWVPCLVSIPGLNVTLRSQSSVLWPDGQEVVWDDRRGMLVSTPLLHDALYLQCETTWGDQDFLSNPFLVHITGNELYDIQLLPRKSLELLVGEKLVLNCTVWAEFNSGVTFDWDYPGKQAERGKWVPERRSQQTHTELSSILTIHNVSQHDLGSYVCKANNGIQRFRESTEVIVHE


Biological target: T1, human VEGFR3-Fc fusion protein
Experiment: phage attachment assay, VEGFR3-Fc-coated versus BSA-blocked microtiter wells
Method: VEGFR3-Fc fusionprotein (1 μg/ml) was coated on microtiter wells (96-well plate) overnight at 4° C. Wells were then saturated with 5% BSA. In the first panning, the libraries were incubated overnight at 4° C. in 50 mM TBS buffer (Tris-HCl/0.1M NaCl, pH 7.5) containing 1% BSA. After extensive washing, the bounded phages were eluted with a low pH buffer (0.1M glycine-HCl, 0.1%BSA, 0.05% phenol red, pH2.2)(Koivunen et al., Methods Mol. Biol. 129:3-17,1999; Koivunenet al, Biotechnol., 18(8):768-74,1999; Smoth et al., Methods Enzymol., 217:228-357, 1993). In subsequent pannings, the amplified phages using the K91kan E. coli.(Koivunen et al., Methods Mol. Biol. 129:3-17, 1999) were allowed to bind for 1 h at room temperature. Randomly selected clones from the fourth round of panning were amplified overnight and sequenced using ABIPRISM 310 Genetic Analyzer. The binding of each clone to VEGFR-3 was verified by an attachment assay, in which the cloned phage were incubated for 60 minutes in VEGFR3-Fc-coated or BSA-blocked microtiter wells. Thewells were washed ten times with TBS containing 0.5% Tween-20. The bound phages were titered by calculating the number of colonies.

binding result | Binder
binds | SCYWRDTWF (also called X9 library clone) [SCYWRDTWF (SEQ ID NO: 37)]
binds | CVEVQITQEC (also called CX8C library clone) [CVEVQITQEC (SEQ ID NO: 56)]
binds | KVGWSSPDW (also called X9 library clone) [KVGWSSPDW (SEQ ID NO: 38)]
binds | SGYWWDTWF (also called X9 library clone) [SGYWWDTWF (SEQ ID NO: 36)]
binds | CVWDHGVC [CVWDHGVC (SEQ ID NO: 65)]
binds | CYGFEAAWC (also called CX7C library clone) [CYGFEAAWC (SEQ ID NO: 59)]
binds | YSSSMRWRH (also called X9 library clone) [YSSSMRWRH (SEQ ID NO: 40)]
binds | CWQLGRNWIC (also called CX8C library clone) [CWQLGRNWIC (SEQ ID NO: 55)]
binds | CRKVWDIRC (also called CX7C library clone) [CRKVWDIRC (SEQ ID NO: 64)]
binds | RWRGNAYPG (also called X9 library clone) [RWRGNAYPG (SEQ ID NO: 41)]

More lines, now with the values behind:

Binder | binding result
CYGFLWGMC (not fully specified (bridges); cysteine pairing not given here; also: displayed on fUSE5 phage as coat protein fusion, flanking residues not given here, also called CX7C library clone) [CYGFLWGMC (SEQ ID NO: 60)] | binds
CMDPWGGWC (also called CX7C library clone) [CMDPWGGWC (SEQ ID NO: 63)] | binds
CRALDSALAC (also called CX8C library clone) [CRALDSALAC (SEQ ID NO: 58)] | binds
CGQMCTVWCSSGC (also called CX3CX3CX3C library clone) [CGQMCTVWCSSGC (SEQ ID NO: 66)] | binds
FVGWTKVLG (also called X9 library clone) [FVGWTKVLG (SEQ ID NO: 39)] | binds
WFSASLRFR (also called X9 library clone) [WFSASLRFR (SEQ ID NO: 43)] | binds
CAGKASSLWC (also called CX8C library clone) [CAGKASSLWC (SEQ ID NO: 57)] | binds
CSRWRILGC (also called CX7C library clone) [CSRWRILGC (SEQ ID NO: 61)] | binds
SAVFRGRWL (also called X9 library clone) [SAVFRGRWL (SEQ ID NO: 42)] | binds
CHKWQKRQC (also called CX7C library clone) [CHKWQKRQC (SEQ ID NO: 62)] | binds

Reference: patent US20020164667A1 (VEGENICS, published 2002)
